One molecule from publication PMC8948829, “The Escherichia coli Amino Acid Uptake Protein CycA: Regulation of Its Synthesis and Practical Application in l-Isoleucine Production” can be followed below.

For the data set, the target named is Crp (CRP, cAMP receptor protein) (Escherichia coli (purified from strain …, UniProt P0ACJ8 1-210)). Description: EMSA; 20 uM cAMP; 12 ng Crp, 50 ng probe; 10 mM Tris-HCl pH 7.5, 1 mM EDTA, 100 mM KCl, 1 mM DTT, BSA (printed 10 g/mL), 5% glycerol, 20 uM cAMP, room temperature 30 min; 6% native PAGE, 1x TAE, 4 C. Conditions: protein: recombinant; tags: none (native His residues used for Ni-NTA); chain copies: 2; label: 5'-TAMRA on strand 2 (primer P11); blunt. (In general: In EMSA bound probe runs differently from free probe, usually more slowly.)
Crp (CRP, cAMP receptor protein) (Escherichia coli, sequence (P0ACJ8 whole entry): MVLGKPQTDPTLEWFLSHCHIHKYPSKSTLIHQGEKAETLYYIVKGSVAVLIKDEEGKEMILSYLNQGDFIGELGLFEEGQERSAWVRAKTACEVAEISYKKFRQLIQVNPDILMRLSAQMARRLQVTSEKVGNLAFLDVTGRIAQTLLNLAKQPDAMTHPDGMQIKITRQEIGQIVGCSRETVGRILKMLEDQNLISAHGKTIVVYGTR

B1: PcycA fragment 2 (73 bp) (dsDNA)
DNA 1: CAAAGACCCCGTAAGCGTGTATTTTTGTGAGCTGTTTCGCGTTATCACCGTGATATGACACTCACTTTAAACA
DNA 2: TGTTTAAAGTGAGTGTCATATCACGGTGATAACGCGAAACAGCTCACAAAAATACACGCTTACGGGGTCTTTG
Turning to B1, the binding result is listed as “binds”.
